Experimental findings from patent EP3443010B1 are described below.

For assay [1], the target named is recombinant hSIRPa (Sino Biologicals, reference 11612-H08H) (human) (UniProt P78324). Kind of assay: ELISA, hSIRPa (Sino 11612-H08H) coated at 0.5 ug/ml, anti-human IgG detection; second experiment.
For assay [2] the target is unchanged. Kind of assay: ELISA, hSIRPa (Sino 11612-H08H) coated at 0.5 ug/ml, anti-human IgG detection; first experiment.
Assay [3] has the same target. Kind of assay: ELISA, hSIRPa (Sino 11612-H08H) coated at 0.5 ug/ml, anti-human IgG detection; third experiment. Background: In an ELISA, binding on a coated surface is turned into a signal by an enzyme label.
The target is the same in assay [4]. The assay can be described thus: ELISA, hSIRPa (Sino 11612-H08H) coated at 0.5 ug/ml, anti-human IgG detection.

Changes are numbered by the printed parent chain.

Chain of recombinant hSIRPa (Sino Biologicals, reference 11612-H08H) (human) (P78324 31-370): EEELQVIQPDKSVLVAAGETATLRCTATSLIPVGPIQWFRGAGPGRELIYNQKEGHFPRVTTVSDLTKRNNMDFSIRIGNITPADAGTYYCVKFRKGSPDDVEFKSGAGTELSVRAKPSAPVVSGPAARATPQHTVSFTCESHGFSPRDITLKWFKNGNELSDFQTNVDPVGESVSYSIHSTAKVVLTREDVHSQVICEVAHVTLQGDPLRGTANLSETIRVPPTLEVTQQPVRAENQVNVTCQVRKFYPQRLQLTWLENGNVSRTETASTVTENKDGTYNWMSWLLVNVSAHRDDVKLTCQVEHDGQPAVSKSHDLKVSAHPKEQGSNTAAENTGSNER

B1: HELA (antibody, human IgG4 S228P, kappa, V domains shown)
VH: EVQLVQSGAEVKKPGESLRISCKASGYSFTSYWVHWVRQMPGKGLEWMGNIDPSDSDTHYSPSFQGHVTLSVDKSISTAYLQLSSLKASDTAMYYCVRGGTGTLAWFAYWGQGTLVTVSS
VL: DVVMTQSPLSLPVTLGQPASISCRSSQSLVHSYGNTYLYWYQQRPGQSPRLLIYRVSNRFSGVPDRFSGSGSGTDFTLKISRVEAEDVGVYFCFQGTHVPYTFGGGTKVEIKR
One may read the EC50 as the concentration giving half of the maximal effect. With B1, in assay [1], the EC50 is 4.61 ng/mL.

B2: HCLA (antibody, human IgG4 S228P, kappa, V domains shown)
VH: B1 VH with L104M
VL: B1 VL
Regarding B2, the EC50 in assay [1] worked out at 5.6 ng/mL.

B3: HFLA (antibody, human IgG4 S228P, kappa, V domains shown)
VH: B1 VH with L104M, W106Y
VL: B1 VL
In the case of B3, the 50% effective concentration (EC50) in assay [2] stood at 5.1 ng/mL.

B4: HALB (antibody, human IgG4 S228P, kappa, V domains shown)
VH: B1 VH with S28T, M48I, S61N, P62Q, S63K, Q65K, G66D, L104M
VL: B1 VL with Y41F, F92Y
Turning to B4, the EC50 in assay [3] amounted to 2.53 ng/mL.

B5: HBLB (antibody, human IgG4 S228P, kappa, V domains shown)
VH: B1 VH with S61N, P62Q, S63K, Q65K, G66D, L104M
VL: B1 VL with Y41F, F92Y
In the case of B5, the EC50 in assay [3] is 2.95 ng/mL.

B6: HBLA (antibody, human IgG4 S228P, kappa, V domains shown)
VH: B1 VH with S61N, P62Q, S63K, Q65K, G66D, L104M
VL: B1 VL
Consider B6, for which the concentration for a half-maximal effect (EC50) in assay [3] came to 2.68 ng/mL.

B7: HEFLB (antibody, human IgG4 S228P, kappa, V domains shown)
VH: B1 VH with W106Y
VL: B1 VL with Y41F, F92Y
As to B7, the EC50 in assay [2] came out at 4.4 ng/mL.

B8: HCLB (antibody, human IgG4 S228P, kappa, V domains shown)
VH: B1 VH with L104M
VL: B1 VL with Y41F, F92Y
As to B8, in assay [1], the EC50 was determined as 5.59 ng/mL.

B9: HFLB (antibody, human IgG4 S228P, kappa, V domains shown)
VH: B1 VH with L104M, W106Y
VL: B1 VL with Y41F, F92Y
As to B9, in assay [2], the EC50 worked out at 4 ng/mL.

B10: HELB (antibody, human IgG4 S228P, kappa, V domains shown)
VH: B1 VH
VL: B1 VL with Y41F, F92Y
For the molecule B10, the EC50 in assay [1] stood at 4.13 ng/mL.

B11: HALA (antibody, human IgG4 S228P, kappa, V domains shown)
VH: B1 VH with S28T, M48I, S61N, P62Q, S63K, Q65K, G66D, L104M
VL: B1 VL
Regarding B11, the EC50 in assay [2] came to 3.9 ng/mL.

B12: HEFLA (antibody, human IgG4 S228P, kappa, V domains shown)
VH: B1 VH with W106Y
VL: B1 VL
On to B12, for which, in assay [2], the EC50 is 7.1 ng/mL.

B13: Kwar23 (antibody, from another filing, V domains shown)
VH: EVQLQQSGAELVKPGASVKLSCTASGFNIKDYYIHWVQQRTEQGLEWIGRIDPEDGETKYAPKFQDKATITADTSSNTAYLHLSSLTSEDTAVYYCARWGAYWGQGTLVTVSS
VL: QIVLTQSPAIMSASPGEKVTLTCSASSSVSSSYLYWYQQKPGSSPKLWIYSTSNLASGVPARFSGSGSGTSYSLTISSMEAEDAASYFCHQWSSYPRTFGAGTKLELK
For the molecule B13, the EC50 in assay [4] stood at 3.3 ng/mL.
